Series [1] concerns the target T1, Integrin alpha4beta1 on Jurkat cells (clone E6-1) (Homo sapiens, UniProt P13612;P05556 P13612:34-1032,P05556:21-798). The series is described as follows: competition; 50% block of 100 nM VCAM-1 binding to Jurkat cells. The note with it: tags: endogenous, ATCC cell line; label: biotin, FAM or Cy5. As for the experimental part:
CS1 peptide and VCAM-1 competition. For competition studies involving the CS1 peptide, a Tris-based wash buffer comprised of TBS (Fisher) supplemented with 4.5 g/L glucose, 5.5 mM MgCl², 0.9 mM CaCl², and 10 mM MnCl² was used instead of the normal DPBS-based wash buffer described above. Mn²⁺ has previously been described to support α4β1 binding to the fibronectin CS1 peptide (Masumoto and Hemler. (1993) Journal of Biological Chemistry, 268, 228-234), and as MnCl² precipitates in DPBS, a Tris-based wash buffer was thus required. Peptide stocks were prepared fresh in the Tris-based wash buffer at 20 mM prior to the competition studies and the exact concentration was measured using a QuantTag Biotin Quantification Kit (Vector Labs of Newark, CA). Live/dead and aptamer staining were carried out as described above, except cells were pre-blocked with varying concentrations of the SCR-b or CS1-b peptide in Tris-based wash buffer supplemented with 1% BSA (w/v) and 0.1 mg/mL yeast tRNA for 30 min at room temperature prior to spiking in aptamer and incubating for another 30 min at 4° C. As Tris can neutralize PFA, cells were resuspended in regular wash buffer 1% BSA with 0.5% PFA after washing before analyzing on the flow cytometer. […]

Series [2] deals with T2, Integrin alpha4beta1 (VLA-4, CD49d/CD29), recombinant heterodimer (Homo sapiens, UniProt P13612;P05556 P13612:34-977,P05556:21-728). In words: BLI; 25 C, immobilised biotin-aptamer. The following applies: tags: His-tag; ACROBiosystems IT1-H52W1; label: biotin, FAM or Cy5. As to the method:
(§1) Bio-layer interferometry. BLI studies were performed on an Octet RED96 instrument (Sartorius of Göttingen, Germany) using streptavidin biosensors (Sartorius) as previously described (Cheng et al. (2022) J Am Chem Soc, 144, 13851-64). Briefly, wash buffer supplemented with 1% BSA, 0.1 mg/mL yeast tRNA, 0.1 mg/mL salmon sperm DNA, and 0.01% Tween-20 (Sigma) was used as the sample buffer for all steps. All steps were performed at 25° C. with sample agitation at 1000 rpm. Biosensors were allowed to equilibrate in buffer for at least 10 min before loading. For sensor loading, 50 nM biotinylated aptamers were loaded until a 0.5 nm threshold before performing rinse and baseline steps in buffer alone for 100 s each. […] Kinetic constants were calculated for datasets with several analyte concentrations by conducting a global fit of the association and dissociation curves to a 1:1 ligand binding model. The quality of each fit was evaluated using R2 and χ2 values, which are listed in Table 6 for the appropriate datasets along with the calculated kinetic constants.
(§2) Table 6 lists BLI measured affinity kinetics of immobilized HR7A1, HR7A1.Tr1, and HR7A1.Tr2 aptamer binding to recombinant α4β1 protein. […] Values were calculated by performing a global fit of the binding curve data in FIG. 2B to a 1:1 binding model. […] The goodness of fit was evaluated by a reduced chi-square (χ2) and a R2 value approaching 1.

The target in series [3] is T2, Integrin alpha4beta1 (VLA-4, …). The series is described as follows: BLI; 25 C, immobilised biotin-aptamer, DPBS Ca/Mg + 5 mM MgCl2 + BSA/tRNA/ssDNA. The note with it: tags: His-tag; ACROBiosystems IT1-H52W1; label: biotin, FAM or Cy5; motif on top of a stem formed by flanking constant regions (predicted). As for the experimental part: as §1, §2
The target in series [4] is Integrin alpha4beta1 on B16F10 melanoma cells (Mus musculus, UniProt Q00651;P09055 Q00651:41-1039,P09055:21-798). In words: flow; apparent, 4 C. The following applies: tags: endogenous, ATCC cell line; label: biotin, FAM or Cy5; motif on top of a stem formed by flanking constant regions (predicted). As for the experimental part:
(§3) Aptamer binding studies. While suspension H9, Jurkat, Raji, and K562 cells were harvested normally, adherent B16F10 cells were non-enzymatically dissociated with Versene (Gibco) prior to binding studies to prevent possible enzymatic cleavage of the α4β1 integrin that would affect aptamer binding. Once harvested, cells (2×10⁵) were pre-stained with Zombie Violet in DPBS for 15 min at room temperature, washed once with wash buffer supplemented with 1% BSA, and incubated with 100 μL folded FAM-labeled ssDNA pools or FAM/Cy5-labeled individual aptamers for 30 min at 4° C. in binding buffer at the indicated concentrations. For antibody co-staining, antibodies were added to the incubation with aptamers. For competitive binding studies, unique aptamers with different fluorescent labels were co-incubated on cells at different concentrations. Cells were then washed twice with 200 μL wash buffer 1% BSA to remove excess staining reagent. […]
FIGS. 16A, 16B illustrate that HR7A1 binds mouse α4β1. […] (16B) Flow cytometry binding curves of Cy5-labeled CD8.A3t, HR7A1, and Sgc4f to B16F10 cells, as determined by MFI. […] KD values were calculated by averaging the individual regression values of the independent experiments. […]

Series [5] deals with T1, Integrin alpha4beta1 on Jurkat cells …. The series is described as follows: competition; 50% displacement of 20 nM Cy5-Sgc4f on Jurkat cells. The following applies: tags: endogenous, ATCC cell line; label: biotin, FAM or Cy5; motif on top of a stem formed by flanking constant regions (predicted). As to the method:
as §3, with “reagent. If biotinylated aptamers were used for primary staining, cells received a secondary stain with 100 μL fluorescently labeled streptavidin in wash buffer 1% BSA for 20 min at 4° C. and then washed twice as before. Lastly, stained cells were lightly fixed in 200 μL wash buffer 1% BSA with 0.1-0.5% […] (PFA) before immediate analysis via flow cytometry as described above.” for “reagent.”

The target in series [6] is T2, Integrin alpha4beta1 (VLA-4, …). The series is described as follows: BLI; negative control aptamer, 100 nM protein. The note with it: tags: His-tag; ACROBiosystems IT1-H52W1; label: biotin. As for the experimental part:
as §1, with “each. Afterwards, aptamer-loaded sensors were associated with His-tagged human α4β1 (IT1-H52W1, ACROBiosystems of Beijing, China) or His-tagged human α4β7 (IT7-H52W4, ACROBiosystems) at concentrations and times indicated in the figures and captions. Lastly, sensors were transferred to wells containing buffer alone for dissociation.” for “each.”, “constants. […]” for “constants.”

The target in series [7] is Integrin alpha4beta7, recombinant heterodimer (Homo sapiens, UniProt P13612;P26010 P13612:34-977,P26010:20-723). In words: BLI; negative control aptamer, 100 nM protein. The following applies: tags: His-tag; ACROBiosystems IT7-H52W4; label: biotin. As for the experimental part:
as §1, with “each. Afterwards, aptamer-loaded sensors were associated with His-tagged human α4β1 (IT1-H52W1, ACROBiosystems of Beijing, China) or His-tagged human α4β7 (IT7-H52W4, ACROBiosystems) at concentrations and times indicated in the figures and captions. Lastly, sensors were transferred to wells containing buffer alone for dissociation.” for “each.”, “constants. […]” for “constants.”

Series [8] deals with T1, Integrin alpha4beta1 on Jurkat cells …. The series is described as follows: flow; apparent, 4 C. The following applies: tags: endogenous, ATCC cell line. As for the experimental part: (§4) Binding assay: Jurkat cells were washed with DPBS and incubated with Zombie Violet (1:500, 10⁷ cells/mL, BioLegend) in DPBS for live/dead staining for 15 min at room temperature. After live/dead staining, cells were washed with aptamer washed buffer supplemented with 1% BSA to quench the remaining dye and aliquoted in a 96-well plate at 1-2e5 cells/well. For aptamer staining, cells were incubated with annealed aptamers at the indicated concentrations in 100 μL binding buffer (aptamer wash buffer supplemented with 1% BSA and 0.1 mg/ml yeast RNA) for 20-30 min at 4° C. For binding analysis at different temperatures, aptamers (diluted in binding buffer) and cells were separately incubated at the indicated temperatures for 20 min for equilibration. The equilibrated aptamer solutions were then added to the cells and allowed to incubate for 20-30 min. After incubation, cells were washed 2 times with 200 μL aptamer wash buffer supplemented with 1% BSA, resuspended in 200 μL aptamer wash buffer supplemented with 1% BSA and 0.2% PFA, and analyzed on an Attune NxT cytometer.

For series [9] the target is unchanged. In words: flow; apparent, 4 C; better retained binding at 20 and 37 C than parent. The note with it: tags: endogenous, ATCC cell line. As to the method:
as §4

For series [10] the target is unchanged. The series is described as follows: competition; 50% displacement of 20 nM Cy5-HR7A1 on Jurkat cells. The note with it: tags: endogenous, ATCC cell line; label: Cy5. As for the experimental part: as §3, with “reagent. If biotinylated aptamers were used for primary staining, cells received a secondary stain with 100 μL fluorescently labeled streptavidin in wash buffer 1% BSA for 20 min at 4° C. and then washed twice as before. Lastly, stained cells were lightly fixed in 200 μL wash buffer 1% BSA with 0.1-0.5% […] (PFA) before immediate analysis via flow cytometry as described above.” for “reagent.”

T1 sequence (P13612 34-1032, chain 1 of 2): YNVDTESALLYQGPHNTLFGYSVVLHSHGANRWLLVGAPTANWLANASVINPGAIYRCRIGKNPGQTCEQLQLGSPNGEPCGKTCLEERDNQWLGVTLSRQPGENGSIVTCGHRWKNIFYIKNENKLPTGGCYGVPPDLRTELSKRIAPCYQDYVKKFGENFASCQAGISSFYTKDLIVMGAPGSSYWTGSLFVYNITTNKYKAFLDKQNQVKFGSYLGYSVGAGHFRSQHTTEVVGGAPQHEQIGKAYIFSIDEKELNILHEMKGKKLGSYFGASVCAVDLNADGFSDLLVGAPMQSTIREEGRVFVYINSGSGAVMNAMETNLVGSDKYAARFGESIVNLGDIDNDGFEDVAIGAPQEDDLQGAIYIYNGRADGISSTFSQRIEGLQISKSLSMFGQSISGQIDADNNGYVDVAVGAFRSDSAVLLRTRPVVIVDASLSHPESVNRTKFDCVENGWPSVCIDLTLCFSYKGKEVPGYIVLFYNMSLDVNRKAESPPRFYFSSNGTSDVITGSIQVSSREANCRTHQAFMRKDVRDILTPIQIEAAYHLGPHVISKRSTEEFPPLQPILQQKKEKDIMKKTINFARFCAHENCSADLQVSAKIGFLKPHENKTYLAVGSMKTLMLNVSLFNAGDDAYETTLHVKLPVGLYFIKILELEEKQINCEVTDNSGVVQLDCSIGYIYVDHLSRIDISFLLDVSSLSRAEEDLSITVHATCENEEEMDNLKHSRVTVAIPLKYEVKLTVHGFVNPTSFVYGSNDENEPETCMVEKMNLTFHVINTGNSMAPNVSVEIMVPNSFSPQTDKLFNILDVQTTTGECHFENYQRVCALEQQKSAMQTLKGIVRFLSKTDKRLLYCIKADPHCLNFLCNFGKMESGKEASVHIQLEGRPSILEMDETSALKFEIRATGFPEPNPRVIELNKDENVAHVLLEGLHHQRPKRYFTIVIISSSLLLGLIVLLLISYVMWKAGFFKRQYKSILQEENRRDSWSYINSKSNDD
T1 sequence (P05556 21-798, chain 2 of 2): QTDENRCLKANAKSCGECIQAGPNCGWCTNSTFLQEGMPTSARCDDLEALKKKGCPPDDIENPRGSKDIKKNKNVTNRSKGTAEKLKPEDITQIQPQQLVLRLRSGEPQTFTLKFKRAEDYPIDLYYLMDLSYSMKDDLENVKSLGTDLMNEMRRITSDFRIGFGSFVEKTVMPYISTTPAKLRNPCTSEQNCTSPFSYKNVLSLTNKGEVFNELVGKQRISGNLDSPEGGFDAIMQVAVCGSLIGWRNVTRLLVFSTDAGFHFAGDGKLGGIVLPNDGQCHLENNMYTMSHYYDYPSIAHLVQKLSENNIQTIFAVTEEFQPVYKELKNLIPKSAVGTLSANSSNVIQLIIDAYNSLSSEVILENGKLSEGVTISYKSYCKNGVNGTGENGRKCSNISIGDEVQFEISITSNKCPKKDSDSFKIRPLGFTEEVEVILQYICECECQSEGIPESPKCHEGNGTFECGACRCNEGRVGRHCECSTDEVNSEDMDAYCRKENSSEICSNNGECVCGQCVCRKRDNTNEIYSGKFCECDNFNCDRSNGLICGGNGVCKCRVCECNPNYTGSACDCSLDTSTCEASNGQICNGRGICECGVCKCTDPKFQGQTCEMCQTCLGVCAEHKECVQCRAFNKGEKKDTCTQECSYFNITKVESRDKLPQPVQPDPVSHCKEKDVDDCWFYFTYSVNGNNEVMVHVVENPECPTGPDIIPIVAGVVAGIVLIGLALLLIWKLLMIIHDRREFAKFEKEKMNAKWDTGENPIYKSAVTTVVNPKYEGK
T2 sequence (P13612 34-977, chain 1 of 2): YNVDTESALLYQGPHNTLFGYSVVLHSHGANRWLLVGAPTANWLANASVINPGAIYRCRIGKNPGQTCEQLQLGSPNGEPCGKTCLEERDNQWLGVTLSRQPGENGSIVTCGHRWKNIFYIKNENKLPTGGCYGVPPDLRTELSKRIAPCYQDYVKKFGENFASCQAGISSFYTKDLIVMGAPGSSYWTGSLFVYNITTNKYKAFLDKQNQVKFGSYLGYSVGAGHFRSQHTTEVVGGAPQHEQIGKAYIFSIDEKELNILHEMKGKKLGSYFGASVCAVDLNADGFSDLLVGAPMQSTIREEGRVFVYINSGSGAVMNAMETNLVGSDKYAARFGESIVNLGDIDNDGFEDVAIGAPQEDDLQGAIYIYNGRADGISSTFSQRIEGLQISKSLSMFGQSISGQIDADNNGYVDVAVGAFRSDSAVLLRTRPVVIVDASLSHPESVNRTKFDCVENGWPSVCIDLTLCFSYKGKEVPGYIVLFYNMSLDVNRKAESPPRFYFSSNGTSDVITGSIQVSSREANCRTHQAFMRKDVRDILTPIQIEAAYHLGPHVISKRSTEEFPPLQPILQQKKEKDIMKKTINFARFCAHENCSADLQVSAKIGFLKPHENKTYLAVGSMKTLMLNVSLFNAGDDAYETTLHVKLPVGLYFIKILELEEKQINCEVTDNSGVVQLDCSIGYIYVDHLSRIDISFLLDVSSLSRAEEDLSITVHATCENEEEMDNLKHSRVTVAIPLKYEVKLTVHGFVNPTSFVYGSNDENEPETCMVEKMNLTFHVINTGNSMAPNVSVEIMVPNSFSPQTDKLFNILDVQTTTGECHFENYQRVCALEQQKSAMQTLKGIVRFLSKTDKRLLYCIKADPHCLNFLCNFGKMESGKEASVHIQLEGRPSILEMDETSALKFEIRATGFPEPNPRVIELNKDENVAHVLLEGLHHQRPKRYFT
T2 sequence (P05556 21-728, chain 2 of 2): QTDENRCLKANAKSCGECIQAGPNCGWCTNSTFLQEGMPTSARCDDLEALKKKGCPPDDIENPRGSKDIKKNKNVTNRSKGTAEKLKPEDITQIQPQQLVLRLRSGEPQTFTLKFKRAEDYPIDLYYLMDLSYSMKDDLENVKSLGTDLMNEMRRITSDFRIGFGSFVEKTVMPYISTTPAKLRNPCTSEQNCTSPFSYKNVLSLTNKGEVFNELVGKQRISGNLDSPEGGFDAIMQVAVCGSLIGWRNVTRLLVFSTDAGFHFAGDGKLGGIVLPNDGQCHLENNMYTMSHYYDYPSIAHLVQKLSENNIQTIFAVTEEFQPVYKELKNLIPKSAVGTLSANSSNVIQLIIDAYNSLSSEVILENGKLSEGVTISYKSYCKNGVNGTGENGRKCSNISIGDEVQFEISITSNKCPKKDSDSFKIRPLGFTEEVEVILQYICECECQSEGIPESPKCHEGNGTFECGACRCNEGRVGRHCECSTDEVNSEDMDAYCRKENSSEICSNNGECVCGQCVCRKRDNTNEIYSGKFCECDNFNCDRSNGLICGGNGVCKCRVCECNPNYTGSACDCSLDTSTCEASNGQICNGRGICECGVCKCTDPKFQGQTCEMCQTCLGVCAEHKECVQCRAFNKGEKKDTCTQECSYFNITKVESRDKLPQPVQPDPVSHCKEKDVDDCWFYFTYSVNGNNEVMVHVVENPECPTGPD
Chain of Integrin alpha4beta7, recombinant heterodimer (P13612 34-977, chain 1 of 2): as the sequence (P13612 34-977, chain 1 of 2) above
Chain of Integrin alpha4beta7, recombinant heterodimer (P26010 20-723, chain 2 of 2): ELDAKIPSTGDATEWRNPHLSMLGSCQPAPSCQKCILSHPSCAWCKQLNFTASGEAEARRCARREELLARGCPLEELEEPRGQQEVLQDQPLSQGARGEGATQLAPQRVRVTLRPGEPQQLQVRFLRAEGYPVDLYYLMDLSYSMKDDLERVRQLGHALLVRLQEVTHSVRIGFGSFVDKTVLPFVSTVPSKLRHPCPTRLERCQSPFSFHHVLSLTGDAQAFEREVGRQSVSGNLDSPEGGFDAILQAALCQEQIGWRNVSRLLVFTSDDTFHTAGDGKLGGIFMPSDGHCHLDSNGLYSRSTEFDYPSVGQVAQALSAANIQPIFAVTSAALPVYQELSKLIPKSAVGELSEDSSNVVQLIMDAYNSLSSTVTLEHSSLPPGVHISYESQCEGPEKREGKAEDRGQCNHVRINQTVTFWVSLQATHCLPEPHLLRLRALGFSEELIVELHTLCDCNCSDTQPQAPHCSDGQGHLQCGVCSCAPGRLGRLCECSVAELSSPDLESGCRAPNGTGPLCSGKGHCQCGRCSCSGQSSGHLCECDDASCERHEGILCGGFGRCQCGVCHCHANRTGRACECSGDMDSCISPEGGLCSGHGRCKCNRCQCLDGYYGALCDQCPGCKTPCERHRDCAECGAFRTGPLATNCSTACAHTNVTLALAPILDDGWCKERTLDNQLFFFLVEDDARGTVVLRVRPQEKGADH

In series [1], CTCCTTACTAGATGCAACCCGACTACTAACGTCGTAAGAGAG (ssDNA) [HR7A1.Tr2] registered an IC50 of 3 nM. In addition, the Kd in [2] was 9.89 nM.

B1: HR7A1 (ssDNA)
DNA: ATCCAGAGTGACGCAGCAAACCTGACCTCCTTACTAGATGCAACCCGACTACTAACGTCGTAAGAGAGCCTGGACACGGTGGCTTAGT
In the case of B1, the Kd in series [3] was 6.28 nM; in [4] it was 5.2 nM. In addition, the IC50 in series [5] is 0.3 fold excess.

B2: HR7A1.Tr1 (ssDNA)
DNA: CAGCAAACCTGACCTCCTTACTAGATGCAACCCGACTACTAACGTCGTAAGAGAG
On to B2, for which the Kd in [2] amounted to 7.74 nM.

B3: CD8.A3 (ssDNA)
DNA: ATCCAGAGTGACGCAGCAACAGAGGTGTAGAAGTACACGTGAACAAGCTTGAAATTGTCTCTGACAGAGGTGGACACGGTGGCTTAGT
Turning to B3, the binding result in series [6] and in series [7] was “no binding” each time.

As to CGCGCCGTACTAGATGCAACCCGACTACTAACGTCGTACGAGCGCG (ssDNA, PS at three terminal linkages of each end: C*G*C*GCC...GAGC*G*C*G) [HR7A1.Tr2.S2E2.PS3], in series [8], the Kd is 3.2 nM.

Consider CGCGCCGTACTAGATGCAACCCGACTACTAACGTCGTACGAGCGCG (ssDNA, PS at * : C*G*CGCCGTA*CTA*GA*TGCA*A*CCCGACTACTAA*CGTCGTACGAGCG*C*G) [HR7A1.Tr2.S2E2.PSA], for which the Kd in series [9] was found to be 9.6 nM.

B4: Sgc4f (ssDNA)
DNA: ATCACTTATAACGAGTGCGGATGCAAACGCCAGACAGGGGGACAGGAGATAAGTGA
As for B4, the IC50 in series [10] is greater than 3 fold excess.

(Values after US20250020645, “A4B1 BINDING APTAMERS” (University of Washington, published 2025).)
